Results as given in publication PMC9486129, “An evolutionary divergent thermodynamic brake in ZAP-70 fine-tunes the kinetic proofreading in T cells” (The Journal of Biological Chemistry, 2022).
Where no end group is shown, it is not given here. [ ]: non-standard residue; d: D form. pY = N[C@@H](Cc1ccc(OP(=O)(O)O)cc1)C(=O)O

Target: T1, ZAP-70 tandem SH2 domain R192A (1-256)
T1 construct: numbers count on: PDB 2OQ1 (holo-tSH2 structure); also called tSH2 R192A; C-SH2 domain mutant; source: E. coli BL21(DE3), purified (Ni-NTA, Q column, gel filtration)
Test: ITC; Malvern PEAQ-ITC, 20 °C; C-SH2 mutant tSH2 (R192A, printed R190A in the methods) in 20 mM Hepes pH 8.2, 150 mM NaCl, 5 mM β-mercaptoethanol; titrated with 300 μM peptide; one-site binding model; constant printed under the column Kd2
Details: both partners purified

B1: doubly-phosphorylated ITAM-ζ3 peptide (peptide)
chain: DGL[pY]QGLSTATKDT[pY]DALH
- Kd: 12 ± 0.9 µM
